From patent US9993536B2, “Peptides and combination of peptides and scaffolds for use in immunotherapy against renal cell carcinoma (RCC) and other cancers” (immatics biotechnologies GmbH, priority 2015, dated 2018)

Molecular target: HLA-A*02:01 (Homo sapiens, UniProt P04439, D140Y/D185E/D98H/E176V/E277Q/G131W/G231S/I119V/I121R/I166T/I218V/L300P/L318F/N151K/N90K/P208A/P217A/Q86G/Q94H/R138H/R169H/T345S)
Assay: MHC binding assay (UV-ligand exchange, beta2m ELISA)
Settings: peptide exchange yield, HLA-A*02:01, UV-ligand exchange
Excerpt: Candidate peptides for T cell based therapies according to the present invention were further tested for their MHC binding capacity (affinity). The individual peptide-MHC complexes were produced by UV-ligand exchange, where a UV-sensitive peptide is cleaved upon UV-irradiation, and exchanged with the peptide of interest as analyzed. Only peptide candidates that can effectively bind and stabilize the peptide-receptive MHC molecules prevent dissociation of the MHC complexes. To determine the yield of the exchange reaction, an ELISA was performed based on the detection of the light chain (β2m) of stabilized MHC complexes. The assay was performed as generally described in Rodenko et al. (Rodenko et al., 2006).
96 well MAXISorp plates (NUNC) were coated over night with 2 ug/ml streptavidin in PBS at room temperature, washed 4× and blocked for 1 h at 37° C. in 2% BSA containing blocking buffer. Refolded HLA-A*02:01/MLA-001 monomers served as standards, covering the range of 15-500 ng/ml. Peptide-MHC monomers of the UV-exchange reaction were diluted 100 fold in blocking buffer. Samples were incubated for 1 h at 37° C., washed four times, incubated with 2 ug/ml HRP conjugated anti-β2m for 1 h at 37° C., washed again and detected with TMB solution that is stopped with […]. Absorption was measured at 450 nm. Candidate peptides that show a high exchange yield (preferably higher than 50%, most preferred higher than 75%) are generally preferred for a generation and production of antibodies or fragments thereof, and/or T cell receptors or fragments thereof, as they show sufficient avidity to the MHC molecules and prevent dissociation of the MHC complexes.

| Substance | Peptide exchange (MHC class I binding score) |
| --- | --- |
| 4 (FLSQDIITV; listed as Homo sapiens) [compound 4] | +++ (≥50 = +++) |
| 5 (YLYPNLTRL; listed as Homo sapiens) [compound 5] | ++ (≥20% = ++) |
| 8 (GLASFKSFL; listed as Homo sapiens) [compound 8] | ++ (≥20% = ++) |
| 10 (KLLQNNYGL; listed as Homo sapiens) [compound 10] | ++ (≥20% = ++) |
| 11 (FIQTEAPKEV; listed as Homo sapiens) [compound 11] | ++ (≥20% = ++) |
| 12 (ALDPSGNQLI; listed as Homo sapiens) [compound 12] | ++ (≥20% = ++) |
| 13 (KIMAQILTV; listed as Homo sapiens) [compound 13] | +++ (≥50 = +++) |
| 14 (ALLTETIFL; listed as Homo sapiens) [compound 14] | ++ (≥20% = ++) |
| 17 (ILAQQVHAL; listed as Homo sapiens) [compound 17] | +++ (≥50 = +++) |
| 18 (YVLDLAAKV; listed as Homo sapiens) [compound 18] | +++ (≥50 = +++) |
| 19 (LLDPGSLQL; listed as Homo sapiens) [compound 19] | ++ (≥20% = ++) |
| 21 (RLIQGDQILSV; listed as Homo sapiens) [compound 21] | ++ (≥20% = ++) |
| 22 (FLSPPLPSV; listed as Homo sapiens) [compound 22] | +++ (≥50 = +++) |
| 23 (YIQEVVQYI; listed as Homo sapiens) [compound 23] | +++ (≥50 = +++) |
| 24 (FTLGTTVFL; listed as Homo sapiens) [compound 24] | +++ (≥50 = +++) |
| 25 (LLVPAHLVAA; listed as Homo sapiens) [compound 25] | ++ (≥20% = ++) |
| 27 (SLSDLLVSL; listed as Homo sapiens) [compound 27] | +++ (≥50 = +++) |
| 28 (FIADLVVGL; listed as Homo sapiens) [compound 28] | ++ (≥20% = ++) |
| 30 (QLFYTKIFL; listed as Homo sapiens) [compound 30] | ++ (≥20% = ++) |
| 31 (VLFGLDPAVIKV; listed as Homo sapiens) [compound 31] | +++ (≥50 = +++) |
| 33 (FIADVVEKI; listed as Homo sapiens) [compound 33] | ++ (≥20% = ++) |
| 34 (ELNNQNFYL; listed as Homo sapiens) [compound 34] | +++ (≥50 = +++) |
| 35 (VLHSLQTQL; listed as Homo sapiens) [compound 35] | ++ (≥20% = ++) |
| 36 (SLFGKKYIL; listed as Homo sapiens) [compound 36] | ++ (≥20% = ++) |
| 37 (VLAPVILML; listed as Homo sapiens) [compound 37] | ++ (≥20% = ++) |
| 38 (VLLDTILQL; listed as Homo sapiens) [compound 38] | +++ (≥50 = +++) |
| 39 (YLLNLNHLGL; listed as Homo sapiens) [compound 39] | +++ (≥50 = +++) |
| 40 (YIQEHLLQI; listed as Homo sapiens) [compound 40] | +++ (≥50 = +++) |
